Test results as given in patent publication US20190338035A1 (EUREKA THERAPEUTICS, published 2019).

Legend:
[1] = target: T1, HLA-A*02:01 on T2 cells without peptide loading (human); test: flow cytometry, scFv phage on T2 cells, anti-M13 + PE anti-mouse IgG
T1 construct: whole, on cells; TAP-deficient T2 cells with no exogenous peptide

[2] = target: T2, control peptide mixture P20/HLA-A*02:01 complexes on T2 cells (human); test: as above
T2 construct: whole, on cells; A pool of 20 different peptide/HLA-A*02:01 complexes on one cell population, not a single complex; also called T2-P20

[3] = target: T3, WT H3.3 26-35 peptide/HLA-A*02:01 complex on T2 cells (human); test: as above
T3 construct: whole, on cells; T2 cells pulsed with the synthetic peptide; also called T2-WT H3.3; T2-WT 3.3

[4] = target: T4, WT H3.1 26-35 peptide/HLA-A*02:01 complex on T2 cells (human); test: as above
T4 construct: whole, on cells; T2 cells pulsed with the synthetic peptide; also called T2-WT H3.1; T2-WT 3.1

[5] = target: T2, control peptide mixture P20/HLA-A*02:01 …; test: flow cytometry, scFv phage on T2 cells, anti-M13 + labelled anti-mouse IgG
[6] = target: T3, WT H3.3 26-35 peptide/HLA-A*02:01 …; test: as above
[7] = target: T1, HLA-A*02:01 on T2 cells without peptide …; test: as above
[8] = target: T1, HLA-A*02:01 on T2 cells without peptide …; test: flow cytometry, scFv phage on T2 cells
[9] = target: T1, HLA-A*02:01 on T2 cells without peptide …; test: T2 stabilisation assay, BB7.2 staining, flow cytometry

Binder | Median MFI (PE-A) [2] | Median MFI (PE-A) [3] | Median MFI (PE-A) [4] | Median MFI (PE-A) [5] | Median MFI (PE-A) [6] | further results
Phage clone 13 (scFv, fusion to the phage coat protein not described) scFv: DVVMTQSPLSLPVTLGQPASISCRSSQSLIYSNGNTYLTWFHQRPGQPPRRLIHKVSNRDSGVPDRFSGSGSGSDFTLKISRVEAEDVGIYYCMQGTHWPPTFGGGTKLEIKRSRGGGGSGGGGSGGGGSLEMAEVQLVQSGAEVKKPGESLKISCKGSGYSFTSYWIGWVRQMPGKGLEWMGIIYPGDSDTRYSPSFQGQVTISADKSISTAYLQWSSLKASDTAMYYCARGYDVWGQGTLVTVSS | 1560 MFI | 784 MFI | 761 MFI | – | – | Median MFI (PE-A) [1]: 543 MFI
Phage clone 5 (scFv, fusion to the phage coat protein not described; also called anti-HMC scFv 5) scFv: DVVMTQSPLSLPVTLGQPASISCRSSQSLVYSNGNTYLNWFHQRPGQSPRRLIYEVSNRDSGVPDRFSGSGSGTDFTLKISRVEAEDVGVYYCMQGTHWPPTFGGGTKLEIKRSRGGGGSGGGGSGGGGSLEMAEVQLVQSGAEVKKPGESLKISCKGSGYSFTSYWIGWVRQMPGKGLEWMGIIYPGDSDTRYSPSFQGQVTISADKSISTAYLQWSSLKASDTAMYYCARGYDGWGQGTLVTVSS | 703 MFI | 305 MFI | 320 MFI | – | – | –
Phage clone 16 (scFv, fusion to the phage coat protein not described) scFv: DVVMTQSPLSLPVTLGQPASISCRSSQSLIYSNGNTYLTWFHQRPGQPPRRLIHKVSNRDSGVPDRFSGSGSGSDFTLKISRVEAEDVGIYYCMQGTHWPPTFGGGTKLEIKRSRGGGGSGGGGSGGGGSLEMAEVQLVQSGAEVKKPGESLKISCKGSGYSFTSYWIGWVRQMPGKGLEWMGIIYPGDSDTRYSPSFQGQVTISADKSISTAYLQWSSLKASDTAMYYCARGYDSWGQGTLVTVSS | 4190 MFI | 2440 MFI | 2320 MFI | – | – | Median MFI (PE-A) [1]: 1700 MFI
Phage clone 36 (scFv, fusion to the phage coat protein not described) scFv: SSELTQDPAVSVALGQTVRITCQGDSLRSYYANWYQQKPGQAPVLVIYAKSNRPSGIADRFSGSSSGNTASLTITGAQAEDEADYYCNSRDSSGNRWVFGGGTKVTVLGSRGGGGSGGGGSGGGGSLEMAEVQLVQSGAEVKKPGASVKVSCKASGYTFTGYYMHWVRQAPGKGLEWMGGFDPEDGETIYAQKFQGRVTMTEDTSTDTAYMELSSLRSEDTAVYYCARSSWWSPVTYYDIWGQGTLVTVSS | – | – | – | 11000 MFI | 33600 MFI | –
Phage clone 32 (scFv) scFv: QSVLTQPPSVSGAPGQRVTISCTGSSSNLGAGYDVHWYQQLPGTAPKVLVYFNNNRPSGVPDRFSGSKSGTSASLAITGLQAEDEADYYCQSYDSSLSASVFGTGTKVTVLGSRGGGGSGGGGSGGGGSLEMAQVQLVESGAEVKKPGASVKVSCKASGYTFTSYTITWVRQAPGQGLEWMGWISPYNGNTNYAQNLQGRVTMTTDTSTTTAYMELRSLTSDDTAVYYCARSWEHGFPYDEWGQGTLVTVSS | – | – | – | 146 MFI | 90800 MFI | Median MFI (PE-A) [7]: 132 MFI
Phage clone 35 (scFv) scFv: SYVLTQPPSASGTPGQRVTISCSGSTFNIGSNTVNWYQQLPATAPKLLIYSNNQRPSGVPDRFSGSKSGTSASLAISGLQSEDAAAYYCAAWDDSLSGHVVFGGGTKLTVLGSRGGGGSGGGGSGGGGSLEMAEVQLVQSGAEVKKPGASVKVSCKASGYTFTSYGISWVRQAPGQGLEWMGWISAYNGNTNYAQKLQGRVTMTTDTSTSTAYMELRSLRSDDTAVYYCARYYESGYPFDWWGQGTLVTVSS | – | – | – | 124 MFI | 84200 MFI | Median MFI (PE-A) [7]: 125 MFI
Phage clone 10 (scFv, fusion to the phage coat protein not described) scFv: EIVLTQSPLSLPVTLGQPASISCRSSQSLVYSNGNTYLSWFHQRPGQSPRRLIYKVSKRDSGVPDRFSGSGSGTDFTLKISRVEAEDVGVFYCMQGTYWPYTFGQGTKLEIKRSRGGGGSGGGGSGGGGSLEMAEVQLVQSGAEVKKPGESLKISCKGSGYSFTSYWIGWVRQMPGKGLEWMGIIYPGDSDTRYSPSFQGQVTISADKSISTAYLQWSSLKASDTAMYYCARGFDNWGQGTLVTVSS | 2010 MFI | 849 MFI | 770 MFI | – | – | Median MFI (PE-A) [1]: 686 MFI
Phage clone 34 (scFv) scFv: QSVLTQPPSVSGAPGQRVTISCTGSSLNLGAGYDVHWYQQFPGTAPKLLIFANTNRPSGVPDRFSASKSGTSASLAITGLQAEDEADYFCQSYDNSLSGYVFGTGTKVTVLGSRGGGGSGGGGSGGGGSLEMAQVQLVQSGAEVKKPGSSVKVSCKASGGTFSSYAISWVRQAPGQGLEWMGGIIPIFGTANYAQKFQGRVTITADESTSTAYMELSSLRSEDTAVYYCARSYWTFEYSIDSWGQGTLVTVSS | – | – | – | 109 MFI | 8340 MFI | Median MFI (PE-A) [7]: 109 MFI
Phage clone 38 (scFv, fusion to the phage coat protein not described) scFv: SYELTQPPSVSVAPGKTARITCGGNNIGSKSVNWYQQKPGQAPVLVIYYDNDRPSGIPERFSGSNSGNTATLTISRVEAGDEADYYCQVWNSSSDHYVFGTGTKVTVLGSRGGGGSGGGGSGGGGSLEMAQMQLVQSGAEVKTTGASVRVSCKASGYTFTDYYLHWVRQAPGQGLEWMGWINPHSGGTNYAQKFQGRVTMTRDTSISTAYMELSSLRSDDTAVYYCAREDYSGSGSSDAWGQGTLVTVSS | – | – | – | 128 MFI | 32900 MFI | Median MFI (PE-A) [7]: 66 MFI
Phage clone 33 (scFv, fusion to the phage coat protein not described) scFv: QSVLTQPPSVSGAPGQRVTIFCTGSSSNIGAGYDVHWYQQLPGTAPKLLIYGNNNRPSGVPDRFSGSKSGTSASLAITGLQAEDEADYYCQSYDTSLTPVFGGGTKLTVLGSRGGGGSGGGGSGGGGSLEMAEVQLVQSGAEVRKPGSSVKVSCKASAGTFNRYSLSWVRQAPGQGLEWVGRIIPIIGVADYAQKFQGRVTITADKSATTAYMELHSLRSEDTAVYYCARQEYSYAMDYWGQGTLVTVSS | – | – | – | 2860 MFI | 49100 MFI | –
Phage clone 31 (scFv, fusion to the phage coat protein not described) scFv: QAVLTQPSSLSASPGASASLTCTLRSGINVGTYRIYWYQQKPGSPPQYLLRYKSDSDKQQGSGVPSRFSGSKDASANAGILLISGLQSEDEADYYCMIWHSSAWVFGGGTKLTVLGSRGGGGSGGGGSGGGGSLEMAEVQLVESGGGLVQPGGSLRLSCAASGLTFDRYAMSWVRQAAGKGLERFSAITGDGYYTYYADSVKGRFTISRDNSKNTLYLQMNSLGAEDTAVYYCARLSGIGRSSYDGWGQGTLVTVSS | 128 MFI | 777 MFI | 529 MFI | – | – | binding result [8]: no binding; Median MFI (PE-A) [1]: 125 MFI
RKSAPATGGV (Free synthetic peptide pulsed onto T2 cells; also called H3.1 26-35 WT peptide) [WT H3.1 26-35 peptide] | – | – | – | – | – | binding result [9]: binds
RMSAPATGGV (Free synthetic peptide pulsed onto T2 cells) [mutant histone K27M-H3.1 26-35 peptide] | – | – | – | – | – | binding result [9]: binds
RMSAPSTGGV (Free synthetic peptide pulsed onto T2 cells) [mutant histone K27M-H3.3 26-35 peptide] | – | – | – | – | – | binding result [9]: binds
